Assay results published in publication PMC6701479, “KAP1 is an antiparallel dimer with a functional asymmetry” (Life Science Alliance, 2019).
Each block holds one binder with its values, some of them ahead of it.

What was measured:
[1] = target: the molecule itself; experiment: SEC-MALS; KAP1 constructs alone, 10 to 40 μM; Superose 6 10/300 GL; 20 mM Hepes pH 7.5, 300 mM NaCl, 2 mM TCEP
Atto 532–labeled HP1α = Atto 532–labeled HP1α (UniProt P45973 1-191, Atto 532 on a tripeptide (Thz-G2-C3-CONH2, thiazolidine opened) joined to the C terminus; C-terminal amide); experiment: cell-based or functional assay
Sequence of Atto 532–labeled HP1α (P45973 whole entry): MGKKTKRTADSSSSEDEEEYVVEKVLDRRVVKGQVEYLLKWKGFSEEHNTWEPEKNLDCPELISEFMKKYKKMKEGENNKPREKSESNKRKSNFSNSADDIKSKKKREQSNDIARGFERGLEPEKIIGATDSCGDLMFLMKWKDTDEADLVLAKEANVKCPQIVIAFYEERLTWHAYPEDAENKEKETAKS

B1: KAP1 RBCC domain (RBCC, 23–418) (domain or fragment, human, UniProt Q13263 23-418, looked up)
chain: GEGSAGGEKRSTAPSAAASASASAAASSPAGGGAEALELLEHCGVCRERLRPEREPRLLPCLHSACSACLGPAAPAAANSSGDGGAAGDGTVVDCPVCKQQCFSKDIVENYFMRDSGSKAATDAQDANQCCTSCEDNAPATSYCVECSEPLCETCVEAHQRVKYTKDHTVRSTGPAKSRDGERTVYCNVHKHEPLVLFCESCDTLTCRDCQLNAHKDHQYQFLEDAVRNQRKLLASLVKRLGDKHATLQKSTKEVRSSIRQVSDVQKRVQVDVKMAILQIMKELNKRGRVLVNDAQKVTEGQQERLERQHWTMTKIQKHQEHILRFASWALESDNNTALLLSKKLIYFQLHRALKMIVDPVEPHGEMKFQWDLNAWTKSAEAFGKIVAERPGTNST
notes: KAP1 (TRIM28), human, RBCC domain (RING, B-box 1, B-box 2, coiled coil), residues 23–418; His6 tag and TEV site precede the protein; no cleavage step is described; also called N-terminal RBCC domain of KAP1; source: E. coli Rosetta (DE3) / Rosetta (DE3) pLys, purified (HisTrap, desalting, SEC)
stoichiometry N [1]: 2

B2: ΔKAP1 (23–812) (domain or fragment, human, UniProt Q13263 23-812, looked up)
chain: GEGSAGGEKRSTAPSAAASASASAAASSPAGGGAEALELLEHCGVCRERLRPEREPRLLPCLHSACSACLGPAAPAAANSSGDGGAAGDGTVVDCPVCKQQCFSKDIVENYFMRDSGSKAATDAQDANQCCTSCEDNAPATSYCVECSEPLCETCVEAHQRVKYTKDHTVRSTGPAKSRDGERTVYCNVHKHEPLVLFCESCDTLTCRDCQLNAHKDHQYQFLEDAVRNQRKLLASLVKRLGDKHATLQKSTKEVRSSIRQVSDVQKRVQVDVKMAILQIMKELNKRGRVLVNDAQKVTEGQQERLERQHWTMTKIQKHQEHILRFASWALESDNNTALLLSKKLIYFQLHRALKMIVDPVEPHGEMKFQWDLNAWTKSAEAFGKIVAERPGTNSTGPAPMAPPRAPGPLSKQGSGSSQPMEVQEGYGFGSGDDPYSSAEPHVSGVKRSRSGEGEVSGLMRKVPRVSLERLDLDLTADSQPPVFKVFPGSTTEDYNLIVIERGAAAAATGQPGTAPAGTPGAPPLAGMAIVKEEETEAAIGAPPTATEGPETKPVLMALAEGPGAEGPRLASPSGSTSSGLEVVAPEGTSAPGGGPGTLDDSATICRVCQKPGDLVMCNQCEFCFHLDCHLPALQDVPGEEWSCSLCHVLPDLKEEDGSLSLDGADSTGVVAKLSPANQRKCERVLLALFCHEPCRPLHQLATDSTFSLDQPGGTLDLTLIRARLQEKLSPPYSSPQEFAQDVGRMFKQFNKLTEDKADVQSIIGLQRFFETRMNEAFGDTKFSAVLVEP
notes: His6 tag and TEV site precede the protein; no cleavage step is described; source: E. coli Rosetta (DE3) / Rosetta (DE3) pLys, purified (HisTrap, desalting, SEC)
stoichiometry N [1]: 2

slow residence time τ_(off,2) of HP1α on H3K9me3 chromatin fibers (smTIRF), KAP1 50 to 400 nM (Atto 532–labeled HP1α): ~3 fold
B3: KAP1 full-length protein (KAP1 FL, 1–835) (natural protein, human, UniProt Q13263 1-835, looked up)
chain: MAASAAAASAAAASAASGSPGPGEGSAGGEKRSTAPSAAASASASAAASSPAGGGAEALELLEHCGVCRERLRPEREPRLLPCLHSACSACLGPAAPAAANSSGDGGAAGDGTVVDCPVCKQQCFSKDIVENYFMRDSGSKAATDAQDANQCCTSCEDNAPATSYCVECSEPLCETCVEAHQRVKYTKDHTVRSTGPAKSRDGERTVYCNVHKHEPLVLFCESCDTLTCRDCQLNAHKDHQYQFLEDAVRNQRKLLASLVKRLGDKHATLQKSTKEVRSSIRQVSDVQKRVQVDVKMAILQIMKELNKRGRVLVNDAQKVTEGQQERLERQHWTMTKIQKHQEHILRFASWALESDNNTALLLSKKLIYFQLHRALKMIVDPVEPHGEMKFQWDLNAWTKSAEAFGKIVAERPGTNSTGPAPMAPPRAPGPLSKQGSGSSQPMEVQEGYGFGSGDDPYSSAEPHVSGVKRSRSGEGEVSGLMRKVPRVSLERLDLDLTADSQPPVFKVFPGSTTEDYNLIVIERGAAAAATGQPGTAPAGTPGAPPLAGMAIVKEEETEAAIGAPPTATEGPETKPVLMALAEGPGAEGPRLASPSGSTSSGLEVVAPEGTSAPGGGPGTLDDSATICRVCQKPGDLVMCNQCEFCFHLDCHLPALQDVPGEEWSCSLCHVLPDLKEEDGSLSLDGADSTGVVAKLSPANQRKCERVLLALFCHEPCRPLHQLATDSTFSLDQPGGTLDLTLIRARLQEKLSPPYSSPQEFAQDVGRMFKQFNKLTEDKADVQSIIGLQRFFETRMNEAFGDTKFSAVLVEPPPMSLPGAGLSSQELSGGPGDGP
notes: KAP1 (TRIM28, TIF1β), human, residues 1–835, complete full-length protein; His6 tag followed by a TEV protease cleavage site precedes the protein (pETDuet-1); no cleavage step is described; also called TIF1β; TRIM28; source: E. coli Rosetta (DE3) / Rosetta (DE3) pLys, purified (HisTrap, desalting, SEC)
stoichiometry N [1]: 2
